In patent US20230295310A1 (ABCELLERA BIOLOGICS, published 2023):

Molecular target: human CD3 (human, UniProt P07766 23-207; P04234 22-171; P09693 23-182)
Assay: cell-based or functional assay

human CD3, sequence (P07766 23-207, chain 1 of 3): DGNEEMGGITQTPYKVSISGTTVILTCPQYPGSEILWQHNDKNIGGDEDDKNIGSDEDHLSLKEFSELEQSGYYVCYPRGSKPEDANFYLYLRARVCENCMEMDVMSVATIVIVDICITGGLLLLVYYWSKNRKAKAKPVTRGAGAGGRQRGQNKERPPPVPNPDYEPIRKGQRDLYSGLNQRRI
human CD3, sequence (P04234 22-171, chain 2 of 3): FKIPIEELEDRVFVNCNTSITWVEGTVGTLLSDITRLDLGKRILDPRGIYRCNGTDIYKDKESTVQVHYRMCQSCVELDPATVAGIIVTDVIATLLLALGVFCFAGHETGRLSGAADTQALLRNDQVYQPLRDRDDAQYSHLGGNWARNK
human CD3, sequence (P09693 23-182, chain 3 of 3): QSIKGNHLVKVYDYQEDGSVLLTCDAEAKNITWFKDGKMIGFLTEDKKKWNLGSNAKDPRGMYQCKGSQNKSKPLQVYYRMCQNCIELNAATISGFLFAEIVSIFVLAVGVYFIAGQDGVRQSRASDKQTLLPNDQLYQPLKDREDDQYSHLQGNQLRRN

Binder | CD4 EC50 (nM); CD69/CD25 on human T cells, plate-coated antibody [nM] | CD8 EC50 (nM); CD69/CD25 on human T cells, plate-coated antibody [nM]
mAb 44 (antibody, V domains shown) VH: QAQLVQSGSELKKPGASVKVSCKASGYTFTRHAMNWVRQAPGQGLEWMGWINTNTGNPTYAQGFTGRFVFSLDTSVSTAYLKISSLKAEDTAVYYCVREGDYDFWSGFFNFDYWGQGTLVTVSS VL: DIQMTQSPSSLSASVGDRVTITCRASQGIRNDLGWFQQKPGKAPTRLIYAASSLQSGVPSRFSGSGSGAEFTLTISSLQPEDFATYYCLQHNSYPRTFGQGTKVEIK | 20.4 | 20.9
mAb 106 (antibody, V domains shown) VH: QVQLVESGGGVVQPGRSLRLSCAASGFTFRSYGMHWVRQAPGKGLEWVAIIWYNGNKKDYVDSVKGRFTISRDNSKNTLYLQMNSLRAEDTALYYCARGPGYNWFDPWGQGTLVTVSS VL: DIQMTQSPPSLSASVGDRVTITCRASQRISSYLNWYQQKPGKAPKLLIYAASSLQSGVPSRFSGSGSGTDFTLTISSLQPEDFATYYCQQSDSFPLTFGGGTKVEII | 13.6 | 12.9
mAb 102 (antibody, V domains shown) VH: QVQLVESGGGVVQPGRSLRLSCAASGFSFRSYGMHWVRQAPGKGLEWVSVISYDGGNKYYADSVKGRFTISRDNSKNTLFLQMKSLRAEDTALYYCAKGGGTYWRGLFEYWGQGTLVTVSS VL: DIQLTQSPSFLSASVGDRVTITCRASQGISSYLAWYQKKPGKAPKLLIYAASTLHSGVPSRFSGGGSGTAFTLTISSLQPEDFATYYCQQLNNYPFTFGPGTKVDIK | 15.6 | 16.9
mAb 100 (antibody, V domains shown) VH: QVQLVESGGGVVQPGRSLRLSCVASGFTFRGYGMHWVRQAPGKGLEWVAIIYYDGKNKYYADSVKGRFTISRDNSKNTLYLQMNSLRVEDTALYYCARGGGYNWFDPWGQGTLVTVSS VL: DIQMTQSPSSLSASVGDRVTITCRASQSISTYLNWYQQKPGKAPKLLIYTASSLQSGVPSRFSGSGSGTVFTLTISSLQPEDFAIYYCQRSYSPPFTFGPGTRLDIK | 13.1 | 13.3
mAb 95 (antibody, V domains shown) VH: QAHLVESGGGVVQPGRSLRLSCSASGFTFSGYGMHWVRQAPGKGLEWVALIYFDGRNKYYADSVKGRFTISRDNSKNTLYLQMNSLRAEDTAVYYCARGGGYNWFDPWGQGTLVTVSS VL: DIQMTQSPSSLSASVGDRVTITCRASQSINNYLSWYQQKPGKAPKLLIYLASNLQSGVPSRFSGSGSGTDFTLTISSLQPEDFATYYCQLSYRSPFTFGPGTKVDVK | 14.4 | 15.5
mAb 101 (antibody, V domains shown) VH: QGQLVESGGGVVQPGRSLRLSCAASGFTFRGFGMHWVRQAPGKGLEWVAIIYYDGKNKYYADSVKGRFTISRDNSKNMLYLQMNSLRAEDTAVYYCAKGGGYNWFDPWGQGTLVTVSS VL: DIQMTQSPSSLSASVGDRVTITCRASQSISTYLNWYQQKPGKAPKLLIYSASSLQSGVPSRFSGSGSGTDFTLTISNLQPEDFAIYYCQRSYSPPFTFGPGTKLDIR | 12.9 | 14.5

Second part, the binder after the results:

CD4 EC50 (nM); CD69/CD25 on human T cells, plate-coated antibody [nM] | CD8 EC50 (nM); CD69/CD25 on human T cells, plate-coated antibody [nM] | Binder
10.4 | 11 | mAb 79 (antibody, V domains shown) VH: QVQLVQSGAEVKKPGASVKVSCKASGYIVTGYYMHWVRQAPGHGLEWMGWINPNSGGTNFAQNFQGRVTMTRDTSISTFYMDLNRLTSDDTAVYYCARGGAPVSYWFFDLWGRGTLVTVSS VL: DIQMTQSPSSLSASVGDRVTITCRASQNINSYLNWYHQKPGKAPKVLIYNTSTLKSGVPSRFSGSGSGTYFTLTISSLQPEDFATFYCQQSHSTPFTFGPGTKVDIK
9.43 | 10.3 | mAb 85 (antibody, V domains shown) VH: QVQLVQSGAEVKKPGASVKVSCKASGYTVTGYYMHWVRQAPGQGLEWMGWINPNSGGTNFAQNFQGRVTMTRDTSISTFYMDLNRLRSDDTAVYYCARGGAPVSYWFFDLWGRGTLVTVSS VL: DIQMTQSPSSLSASVGDRVTITCRASQSISRYLNWYQQKPGKAPKVLIYNTSSLKSGVPSRFSGSGSGTDFTLTISSLQPEDFGTFYCQQSHSTPFTFGPGTKVDIK
12.2 | 12.2 | mAb 78 (antibody, V domains shown) VH: EVQLVESGGGLVQPGGSLRLSCAASGFTFSSYWMSWVRQAPGKGLEWVANIKQDGSEKYYVDSVKGRFTISRDNAKNSLYLQMNSLRAEDTAVYYCARDNSPSFYWYFDLWGRGTLVTVSS VL: DIQMTQSPSTLSASVGDRVTITCRASQSLSRWLAWYQQKPGKAPKLLIYKASSLESGVPSRFSGSGSGTEFTLTISSLQPDDFATYYCQQYYTYSRTFGQGTKVEIK
11.7 | 12.4 | mAb 94 (antibody, V domains shown) VH: QVHLVESGGGVVQPGRSLRLSCSASGFTFSGYGMHWVRQAPGKGLEWVALIYFDGRNKYYADSVKGRFTISRDNSKNTLYLQMNSLRAEDTAVYYCARGGGYNWFDPWGQGTLVTVSS VL: DIQMTQSPSSLSASVGDRVTITCRASQSISNYLNWYQQKPGKAPKLLIYLASSLQSGVPSRFSGSGSGTDFTLTINSLQPEDFASYYCQLSYSSPFTFGPGTKVDVN
17.2 | 19.5 | mAb 96 (antibody, V domains shown) VH: QAHLVESGGGVVQPGRSLRLSCSASGFTFSGYGMHWVRQAPGKGLEWVSLIYFDGRNKYYADSVKGRFTISRDNSKNTLYLQMNSLRAEDTAVYYCARGGGYNWFDPWGQGTLVTVSS VL: DIQMTQSPSSLSASVGDRVTITCRASQSINNYLSWYQQKPGKAPKLLIYLASNLQSGVPSRFSGNGSGTDFTLTISSLQPEDFATYYCQLSYRSPFTFGPGTKVDVK
11.7 | 12.1 | mAb 99 (antibody, V domains shown) VH: QGQLVESGGGVVQPGRSLRLSCAASGFTFRGFGMHWVRQAPGKGLEWVAIIYYDGKNKYYADSVKGRFTISRDNSKNTLYLQMNSLRAEDTAVYYCAKGGGYNWFDPWGQGTLVTVSS VL: DIQMTQSPSSLSASVGDRVTITCRASQSISTYLNWYQQKPGKAPKLLIYSASSLQSGVPSRFSGSGSGTDFTLTISNLQPEDFAIYYCQRSYSPPFTFGPGTKLDIR
12.6 | 13.9 | mAb 97 (antibody, V domains shown) VH: QGQLVESGGGVVQPGRSLRLSCAASGFTFRGYGMHWVRQAPGKGLEWVAIIYYDGKNKYYADSVKGRFTISRDNSKNTLYLQMNNLRVEDTAVYYCARGGGYNWFDPWGQGTLVTVSS VL: DIQMTQSPSSLSASIGDRVTITCRASQSISNYLNWYQQKPGKAPKLLIYSASSLQSGVPSRFSGSGSGTDFTLTISNLQPEDFAIYYCQRSYSPPFTFGPGTKLDIR
11.3 | 12 | mAb 98 (antibody, V domains shown) VH: QVHLVESGGDVVQPGRSLRLSCSASGFTFSGYGMHWVRQAPGKGLEWVALIYFDGRNKYYADSVKGRFTISRDNSKNTLYLQMNSLRAEDTAVYYCARGGGYNWFDPWGQGTLVTVSS VL: DIQMTQSPSSLSASVGDRVTITCRASQSINNYLNWYQQKPGKAPKLLIYLASSLQSGVPSRFSGSGSGTDFTLTISSLQPEDLATYYCQLSYSSPFTFGPGTKVDVK
